# In patent US20220251174A1 (published 2022):
# B1: 2-A6 Fab (Fab, V domains shown)
# VH: QVTLRESGPALVKPTQTLTLTCTFSGFSLNTRGMSVSWIRQPPGKALEWLALIDWEDDKFYRTSLMTRLTISKDIFKNQVVLTMTNVDPVDTGTYYCARTYSVGVKYFGMDVWGQGTTVTVSS
# VL: SSELTQDPAVSVALGQTVRITCQGDSLRNYYASWYRQEPGQAPILLIYGGNYRPSGIPDRFSGSSSGNTASLTITGAQAEDEADYYCNSRDSSGNHVVFGGGTKLTVL
# Molecular target: SARS-CoV-2 Spike S2-hFc (SARS-CoV-2, UniProt P0DTC2 686-1213)
# Experiment: Octet BLI; Fab analyte over S2-hFc on AHC sensors; steady-state analysis
# Protocol: All label-free interaction analysis was performed on an Octet HTX biolayer interferometry-based detection system (ForteBio/Sartorius, Göttingen, Germany) equipped with various sensor types; AR (amine-reactive), SAX (streptavidin-coated), or AHC (anti-human-Fc capture) sensors. Experiments were conducted at 25° C. in a run buffer of PBS containing 0.05% Tween™-20 and 0.5 mg/mL BSA.
# Binding affinity estimates. Different assay formats were used to estimate the binding affinities of Ab/target bimolecular interactions. In one assay format, Fab was titrated as monovalent analyte (typically as a 3-fold series with a top concentration of 3 μM, and at least one concentration in duplicate) over AHC sensors coated with human-Fc-fused targets RBD-hFc, S1-hFc or S2-hFc as ligands (Sino Biological). […] Global affinity estimates were determined using the Kinetics module of Fortebio's Data Analysis HT software version 12.0.1.55. Data were processed by subtracting the responses of a buffer analyte sample and fitting these referenced data globally to a simple 1:1 Langmuir binding model to deduce the KD value from the ratio of the kinetic rate constants (KD=kd/kₐ), where kd and kₐ are the dissociation and association rate constants, respectively. […] All samples were measured on duplicate sensors.
binder,measurement,value
B1,Kd,913 nM
